Key:
[1] = target: T1, peptide (I), native cleavage sequence from plasminogen; assay: kinetics of peptide hydrolysis by the enzyme, HPLC, Eadie-Hofstee
T1 chain: KKSPGRVVGGSVAH

[2] = target: T2, peptide LGGYGRSANAILE; assay: as above
T2 chain: LGGYGRSANAILE

[3] = target: T3, peptide (IV) of Table 1, LGGSGHYGRSGLE; assay: as above
T3 chain: LGGSGHYGRSGLE

[4] = target: T4, peptide (III) of Table 1, LGGSGERARGALE; assay: as above
T4 chain: LGGSGERARGALE

[5] = target: T5, peptide LGGSGRSANAILE; assay: as above
T5 chain: LGGSGRSANAILE

[6] = target: T6, peptide LGGSGRKASLSLE; assay: as above
T6 chain: LGGSGRKASLSLE

[7] = target: T7, peptide LGGSGRNAQVRLE; assay: as above
T7 chain: LGGSGRNAQVRLE

[8] = target: T8, peptide LGGSGRSATRDLE; assay: as above
T8 chain: LGGSGRSATRDLE

[9] = target: T9, peptide (II) of Table 1, LGGSGQRGRKALE; assay: as above
T9 chain: LGGSGQRGRKALE

[10] = target: T10, peptide LGGRGRSANAILE; assay: as above
T10 chain: LGGRGRSANAILE

[11] = target: T11, peptide LGQRGRSANAILE; assay: as above
T11 chain: LGQRGRSANAILE

[12] = target: T12, peptide SGKS; assay: kinetics of peptide hydrolysis by the enzyme, HILIC HPLC, Eadie-Hofstee
T12 chain: SGKS

[13] = target: T13, peptide (VII) of Table 1, FRGRK; assay: as above
T13 chain: FRGRK

[14] = target: T14, peptide (V) of Table 1, YGRS; assay: as above
T14 chain: YGRS

[15] = target: T15, peptide SGRSA; assay: as above
T15 chain: SGRSA

[16] = target: T16, peptide (VI) of Table 1, RGRK; assay: as above
T16 chain: RGRK

[17] = target: T17, peptide GSGKS; assay: as above
T17 chain: GSGKS

[18] = target: T18, peptide SGRS; assay: as above
T18 chain: SGRS

[19] = target: T1, peptide (I), native cleavage sequence …
[20] = target: T12, peptide SGKS
[21] = target: T2, peptide LGGYGRSANAILE
[22] = target: T3, peptide (IV) of Table 1, LGGSGHYGRSGLE
[23] = target: T4, peptide (III) of Table 1, LGGSGERARGALE
[24] = target: T13, peptide (VII) of Table 1, FRGRK
[25] = target: T14, peptide (V) of Table 1, YGRS
[26] = target: T5, peptide LGGSGRSANAILE
[27] = target: T15, peptide SGRSA
[28] = target: T16, peptide (VI) of Table 1, RGRK
[29] = target: T17, peptide GSGKS
[30] = target: T19, fusion of maltose binding protein, QRGRSA and the HY4 gene product of Arabidopsis thaliana, Q43125
T19 chain: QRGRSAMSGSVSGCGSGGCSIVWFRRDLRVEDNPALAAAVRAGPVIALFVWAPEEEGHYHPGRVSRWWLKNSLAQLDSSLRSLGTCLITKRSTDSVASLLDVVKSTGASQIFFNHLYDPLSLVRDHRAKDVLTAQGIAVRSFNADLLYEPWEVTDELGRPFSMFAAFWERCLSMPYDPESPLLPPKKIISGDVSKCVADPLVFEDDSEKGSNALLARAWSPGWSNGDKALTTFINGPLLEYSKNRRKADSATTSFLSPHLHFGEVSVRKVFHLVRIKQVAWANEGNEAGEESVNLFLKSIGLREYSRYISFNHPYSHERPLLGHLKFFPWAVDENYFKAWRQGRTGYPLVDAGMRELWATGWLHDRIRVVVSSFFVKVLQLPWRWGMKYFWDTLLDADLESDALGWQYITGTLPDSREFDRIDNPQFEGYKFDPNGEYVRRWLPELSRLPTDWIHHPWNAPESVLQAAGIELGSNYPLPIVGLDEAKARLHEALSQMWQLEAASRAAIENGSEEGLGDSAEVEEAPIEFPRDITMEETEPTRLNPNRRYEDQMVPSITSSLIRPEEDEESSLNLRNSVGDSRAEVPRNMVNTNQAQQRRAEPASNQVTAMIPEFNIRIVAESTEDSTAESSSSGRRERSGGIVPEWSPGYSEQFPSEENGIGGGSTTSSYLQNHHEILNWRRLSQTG

[31] = target: T6, peptide LGGSGRKASLSLE
[32] = target: T7, peptide LGGSGRNAQVRLE
[33] = target: T18, peptide SGRS
[34] = target: T8, peptide LGGSGRSATRDLE
[35] = target: T9, peptide (II) of Table 1, LGGSGQRGRKALE
[36] = target: T10, peptide LGGRGRSANAILE
[37] = target: T11, peptide LGQRGRSANAILE

B1: tissue plasminogen activator (t-PA) (protein)
chain: SYQVICRDEKTQMIYQQHQSWLRPVLRSNRVEYCWCNSGRAQCHSVPVKSCSEPRCFNGGTCQQALYFSDFVCQCPEGFAGKCCEIDTRATCYEDQGISYRGTWSTAESGAECTNWNSSALAQKPYSGRRPDAIRLGLGNHNYCRNPDRDSKPWCYVFKAGKYSSEFCSTPACSEGNSDCYFGNGSAYRGTHSLTESGASCLPWNSMILIGKVYTAQNPSAQALGLGKHNYCRNPDGDAKPWCHVLKNRRLTWEYCDVPSCSTCGLRQYSQPQFRIKGGLFADIASHPWQAAIFAKHRRSPGERFLCGGILISSCWILSAAHCFQERFPPHHLTVILGRTYRVVPGEEEQKFEVEKYIVHKEFDDDTYDNDIALLQLKSDSSRCAQESSVVRTVCLPPADLQLPDWTECELSGYGKHEALSPFYSERLKEAHVRLYPSSRCTSQHLLNRTVTDNMLCAGDTRSGGPQANLHDACQGDSGGPLVCLNDGRMTLVGIISWGLGCGQKDVPGVYTKVTNYLDWIRDNMRP
B1 was tested. Which Km [1] did it give?
Its Km is 15 mM.

What about the Km [2] of the same protein?
The Km was 1.85 mM.

What about the Km [3] of the same protein?
The Km was 4.01 mM.

What about the Km [4] of the same protein?
The Km was 1.41 mM.

What about the Km [5] of the same protein?
Its Km is 4.08 mM.

And the Km [6]?
The Km was 5.1 mM.

What about the Km [7] of the same protein?
Its Km is 7 mM.

And the Km [8]?
Its Km is 1.5 mM.

And the Km [9]?
Its Km is 2.3 mM.

And the Km [10]?
Its Km is 2.4 mM.

What about the Km [11] of the same protein?
Its Km is 3 mM.

What about the Km [12] of the same protein?
The Km was 28 mM.

What about the Km [13] of the same protein?
The Km was 9.8 mM.

What about the Km [14] of the same protein?
The Km was 6 mM.

And the Km [15]?
The Km was 40 mM.

What about the Km [16] of the same protein?
The Km was 16.6 mM.

What about the Km [17] of the same protein?
The Km was 44 mM.

What about the Km [18] of the same protein?
The Km was 15 mM.

What about the kcat [19] of the same protein?
The kcat was 0.0043 s⁻¹.

What about the kcat/Km [19] of the same protein?
Its kcat/Km is 0.29 M⁻¹ s⁻¹.

What about the “fold decrease of catalytic efficiency against peptide (VI) SGRS” value [20] of the same protein?
The value was “by a factor of 49 for t-PA”.

And the kcat [20]?
The kcat was 0.19 s⁻¹.

What about the kcat/Km [20] of the same protein?
Its kcat/Km is 6.8 M⁻¹ s⁻¹.

What about the kcat [21] of the same protein?
The kcat was 3.29 s⁻¹.

What about the kcat/Km [21] of the same protein?
The kcat/Km was 1800 M⁻¹ s⁻¹.

And the kcat [22]?
The kcat was 1.29 s⁻¹.

And the kcat/Km [22]?
The kcat/Km was 322 M⁻¹ s⁻¹.

What about the kcat [23] of the same protein?
Its kcat is 0.073 s⁻¹.

And the kcat/Km [23]?
The kcat/Km was 52 M⁻¹ s⁻¹.

And the “fold more efficient cleavage by t-PA than by u-PA” value [24]?
The value was “approximately 74 times more efficiently by t-PA than by u-PA”.

And the kcat [24]?
Its kcat is 12.2 s⁻¹.

What about the kcat/Km [24] of the same protein?
Its kcat/Km is 1240 M⁻¹ s⁻¹.

What about the kcat [25] of the same protein?
Its kcat is 23.7 s⁻¹.

What about the kcat/Km [25] of the same protein?
Its kcat/Km is 3950 M⁻¹ s⁻¹.

And the kcat [26]?
The kcat was 0.305 s⁻¹.

What about the kcat/Km [26] of the same protein?
Its kcat/Km is 75 M⁻¹ s⁻¹.

And the kcat [27]?
Its kcat is 2.4 s⁻¹.

What about the kcat/Km [27] of the same protein?
Its kcat/Km is 60 M⁻¹ s⁻¹.

What about the kcat [28] of the same protein?
Its kcat is 15.3 s⁻¹.

What about the kcat/Km [28] of the same protein?
Its kcat/Km is 992 M⁻¹ s⁻¹.

What about the kcat [29] of the same protein?
The kcat was 0.07 s⁻¹.

And the kcat/Km [29]?
Its kcat/Km is 1.6 M⁻¹ s⁻¹.

And the “cleavage of fusion protein, SDS-PAGE” value [30]?
The value was “t-PA readily cleaved the fusion protein”.

And the kcat [31]?
Its kcat is 0.168 s⁻¹.

What about the kcat/Km [31] of the same protein?
Its kcat/Km is 33 M⁻¹ s⁻¹.

What about the kcat [32] of the same protein?
The kcat was 0.255 s⁻¹.

And the kcat/Km [32]?
Its kcat/Km is 36 M⁻¹ s⁻¹.

What about the kcat [33] of the same protein?
Its kcat is 5 s⁻¹.

What about the kcat/Km [33] of the same protein?
The kcat/Km was 330 M⁻¹ s⁻¹.

And the kcat [34]?
The kcat was 0.068 s⁻¹.

And the kcat/Km [34]?
The kcat/Km was 45 M⁻¹ s⁻¹.

What about the kcat [35] of the same protein?
Its kcat is 0.99 s⁻¹.

What about the kcat/Km [35] of the same protein?
Its kcat/Km is 430 M⁻¹ s⁻¹.

What about the kcat [36] of the same protein?
The kcat was 0.85 s⁻¹.

And the kcat/Km [36]?
The kcat/Km was 350 M⁻¹ s⁻¹.

And the kcat [37]?
The kcat was 2.55 s⁻¹.

What about the kcat/Km [37] of the same protein?
The kcat/Km was 850 M⁻¹ s⁻¹.

From patent US20030186329
